Data on 1 molecule can be found in US20180292412A1 (JULIUS MAXIMILIANS UNIVERSIT T W RZBURG, published 2018).

Experiment [1] has as its target T1, recombinant mature human GDF-15 protein derived from expression in E. coli (human, UniProt Q99988 195-308).
T1 construct: mature; also called GDF-15 derived from E. coli expression
T1 sequence (looked up): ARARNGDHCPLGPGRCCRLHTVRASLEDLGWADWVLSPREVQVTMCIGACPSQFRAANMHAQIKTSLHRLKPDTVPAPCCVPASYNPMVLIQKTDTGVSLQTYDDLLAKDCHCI
Briefly: SPR (Biorad ProteOn XPR36), GDF-15 from E. coli immobilised, antibody as analyte. The source says: The GLC sensor chip was activated using Sulfo-NHS (N-Hydroxysulfosuccinimide) and EDC (1-Ethyl-3-[3-dimethylaminopropyl]carbodiimide hydrochloride) (Biorad ProteOn Amine Coupling Kit) according to the manufacturer's recommendation, the sensor surface was subsequently loaded with the proteins up to a density of about 600 RU (1 Ru=1 pg mm⁻²). The non-reacted coupling groups were then quenched by perfusion with 1M ethanolamine pH 8.5 and the biosensor was equilibrated by perfusing the chip with running buffer ([…], 150 mM NaCl, 3.4 mM EDTA, 0.005% Tween-20, pH 7.4, referred to as HBS150). As controls two flow cells were used, one empty with no protein coupled and one coupled with an non-physiological protein partner (human Interleukin-5), which was immobilized using the same coupling chemistry and the same coupling density. For interaction measurements anti-human GDF-15 mAb-B1-23 was dissolved in HBS150 and used in six different concentrations as analyte (concentration: 0.4, 0.8, 3, 12, 49 und 98 nM). […] The resulting sensogram was analyzed using the software ProteOn Manager version 3.0. […] For the association rate constant a value of 5.4±0.06×10⁵ M⁻¹s⁻¹ (kₒₙ) and for the dissociation rate constant a value of 4.3±0.03×10⁻⁴ s⁻¹ (koff) could be determined (values are for the interaction of anti-human GDF-15 mAb-B1-23 with GDF-15 derived from insect cell expression).

For experiment [2], the target named is T2, recombinant mature human GDF-15 protein (as expressed in Baculovirus-transfected HighFive insect cells) (human, UniProt Q99988 197-308).
T2 construct: Immobilised by amine coupling on the SPR chip; also called recombinant human GDF-15; GDF-15 derived from insect cell expression
T2 sequence: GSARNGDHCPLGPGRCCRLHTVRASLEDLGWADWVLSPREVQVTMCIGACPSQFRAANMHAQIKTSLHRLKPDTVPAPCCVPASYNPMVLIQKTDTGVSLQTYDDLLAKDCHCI
Briefly: SPR (Biorad ProteOn XPR36), calculated as koff/kon. The source says:
(§1) For preparing the biosensors recombinant mature human GDF-15 protein was immobilized on flow cells 1 and 2. On one flow cell recombinant GDF-15 derived from Baculvirus-transfected insect cells (HighFive insect cells) and on the other recombinant protein derived from expression in E. coli was used. The GLC sensor chip was activated using Sulfo-NHS (N-Hydroxysulfosuccinimide) and EDC (1-Ethyl-3-[3-dimethylaminopropyl]carbodiimide hydrochloride) (Biorad ProteOn Amine Coupling Kit) according to the manufacturer's recommendation, the sensor surface was subsequently loaded with the proteins up to a density of about 600 RU (1 Ru=1 pg mm⁻²). The non-reacted coupling groups were then quenched by perfusion with 1M ethanolamine pH 8.5 and the biosensor was equilibrated by perfusing the chip with running buffer ([…], 150 mM NaCl, 3.4 mM EDTA, 0.005% Tween-20, pH 7.4, referred to as HBS150). […] The resulting sensogram was analyzed using the software ProteOn Manager version 3.0. […] For the association rate constant a value of 5.4±0.06×10⁵ M⁻¹s⁻¹ (kₒₙ) and for the dissociation rate constant a value of 4.3±0.03×10⁻⁴ s⁻¹ (koff) could be determined (values are for the interaction of anti-human GDF-15 mAb-B1-23 with GDF-15 derived from insect cell expression).

Experiment [3] has as its target T2, recombinant mature human GDF-15 protein …. Briefly: SPR (Biorad ProteOn XPR36, GLC chip), GDF-15 from insect cells immobilised, antibody as analyte, 25° C., 1:1 Langmuir model.
Excerpt: as §1

B1: monoclonal anti-human GDF-15 mAb-B1-23 (antibody, IgG2a, V domains shown, not shown: a dimerising Fc or GST)
VH: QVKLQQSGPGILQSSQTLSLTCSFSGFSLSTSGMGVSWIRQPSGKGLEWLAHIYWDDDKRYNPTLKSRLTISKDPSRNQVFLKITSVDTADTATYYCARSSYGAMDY
VL: DIVLTQSPKFMSTSVGDRVSVTCKASQNVGTNVAWFLQKPGQSPKALIYSASYRYSGVPDRFTGSGSGTDFTLTISNVQSEDLAEYFCQQYNNFPYT
notes: Mouse hybridoma antibody (DSM ACC3142), IgG2a, kappa chain; FR4 and the constant regions are missing; also called antibody B1-23; monoclonal mouse antibody GDF-15
Regarding B1, the “fold difference of affinity against GDF-15 derived from insect cells” value in experiment [1] is below 2 fold. In addition, the Kd in experiment [2] is around 0.79 nM. For the same molecule, in experiment [3], the koff was determined as 0.00043 s⁻¹ and the kon amounted to 540000 M⁻¹ s⁻¹.

As a reminder, the Kd is the concentration at which binding is half-saturated. Usually koff stands for a measure of how fast the partners let go of each other. What is called kon is the rate constant with which the complex forms.
